The source of these data is publication PMC5992149.

In the experiment the target is receptor for advanced glycation end products (human (endogenous in MDA-MB-231)) (UniProt Q15109).
Chain of UniProt Q15109 (Q15109 23-404): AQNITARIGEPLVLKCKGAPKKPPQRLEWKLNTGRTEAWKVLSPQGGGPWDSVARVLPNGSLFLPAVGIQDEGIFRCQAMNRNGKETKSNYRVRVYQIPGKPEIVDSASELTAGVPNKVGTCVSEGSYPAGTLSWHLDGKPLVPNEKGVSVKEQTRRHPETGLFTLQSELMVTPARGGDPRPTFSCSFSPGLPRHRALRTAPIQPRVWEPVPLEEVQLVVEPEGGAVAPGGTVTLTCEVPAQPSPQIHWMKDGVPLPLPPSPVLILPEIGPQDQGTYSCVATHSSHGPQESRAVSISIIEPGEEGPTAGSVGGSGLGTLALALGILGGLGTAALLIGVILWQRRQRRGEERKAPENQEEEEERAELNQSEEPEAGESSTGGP

With “recombinant human Ac-APE1/Ref-1 (from UniProt P27695 1-318) (natural protein)”, the DNA fragmentation of hyperacetylated MDA-MB-231 cells treated with rh Ac-APE1/Ref-1 after pretreatment with anti-APE1/Ref-1 antibody (2 µg, 2 h), against anti-IgG treated cells amounted to 35% and the cell viability of hyperacetylated MDA-MB-231 cells treated with rh Ac-APE1/Ref-1 after pretreatment with anti-APE1/Ref-1 antibody (2 µg, 2 h) was 72.8%.
